Experimental data: article PMC4066782, “The telomerase inhibitor Gno1p/PINX1 activates the helicase Prp43p during ribosome biogenesis” (Nucleic Acids Research, 2014)

Target: Prp43p-HIS (S. cerevisiae, UniProt P53131 1-767)
Assay: cell-based or functional assay

Sequence of Prp43p-HIS (P53131 whole entry): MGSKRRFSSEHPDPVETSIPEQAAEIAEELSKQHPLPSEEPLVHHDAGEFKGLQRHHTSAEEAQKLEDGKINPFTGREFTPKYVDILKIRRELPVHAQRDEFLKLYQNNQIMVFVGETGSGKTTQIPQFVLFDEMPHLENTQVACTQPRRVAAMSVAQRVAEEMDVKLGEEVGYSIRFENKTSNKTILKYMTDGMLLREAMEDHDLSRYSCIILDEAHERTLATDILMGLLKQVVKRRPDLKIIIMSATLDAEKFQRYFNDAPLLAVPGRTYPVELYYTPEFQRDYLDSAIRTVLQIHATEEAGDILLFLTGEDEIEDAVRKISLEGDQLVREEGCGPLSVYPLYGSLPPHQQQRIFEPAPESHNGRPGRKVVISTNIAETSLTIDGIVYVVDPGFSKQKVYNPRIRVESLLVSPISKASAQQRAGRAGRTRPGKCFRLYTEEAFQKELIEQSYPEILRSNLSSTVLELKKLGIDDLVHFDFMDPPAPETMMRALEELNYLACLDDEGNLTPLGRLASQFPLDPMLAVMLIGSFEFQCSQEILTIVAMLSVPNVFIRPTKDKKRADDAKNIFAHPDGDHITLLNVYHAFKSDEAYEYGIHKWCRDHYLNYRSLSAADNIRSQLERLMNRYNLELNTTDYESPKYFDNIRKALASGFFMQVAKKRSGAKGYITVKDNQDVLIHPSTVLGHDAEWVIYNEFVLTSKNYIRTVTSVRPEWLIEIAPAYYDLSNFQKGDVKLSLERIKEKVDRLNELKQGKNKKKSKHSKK

B1: GST-PINX1-HIS (natural protein, human, UniProt Q96BK5 1-328, looked up)
chain: MSMLAERRRKQKWAVDPQNTAWSNDDSKFGQRMLEKMGWSKGKGLGAQEQGATDHIKVQVKNNHLGLGATINNEDNWIAHQDDFNQLLAELNTCHGQETTDSSDKKEKKSFSLEEKSKISKNRVHYMKFTKGKDLSSRSKTDLDCIFGKRQSKKTPEGDASPSTPEENETTTTSAFTIQEYFAKRMAALKNKPQVPVPGSDISETQVERKRGKKRNKEATGKDVESYLQPKAKRHTEGKPERAEAQERVAKKKSAPAEEQLRGPCWDQSSKASAQDAGDHVQPPEGRDFTLKPKKRRGKKKLQKPVEIAEDATLEETLVKKKKKKDSK
ATP hydrolysed by Prp43p-HIS after 60 min of incubation, with GST-PINX1-HIS against without (0.1 μM proteins, 100 μM ATP, 30°C): 9 fold
